Data reported in paper PMC5626683.

Target: GST-MreC from Helicobacter pylori (residues L37-N248), wild type (H. pylori) (UniProt B5Z916)
Assay: ITC; iTC200, 20 °C; PBP2 (3 μL of 160.4 μM) titrated into the cell with GST-tagged MreC (25 μM)

“PBP2 from Helicobacter pylori (residues L38-L588, lacking the TM helix), His6-tagged (domain or fragment)” gave a Kd of 400 nM.
